Consider 1 molecule from article PMC8263772 (2021).

The target of the test is SARS-CoV-2 spike (S) protein receptor binding domain (RBD), wild type (SARS-CoV-2, UniProt P0DTC2). The experiment in a line: SPR.

B1: dog angiotensin-converting enzyme 2 (dACE2) ectodomain, 6xHis (receptor)
chain: MQSTEDLVKTFLEKFNYEAEELSYQSSLASWNYNINITDENVQKMNNAGAKWSAFYEEQSKLAKTYPLEEIQDSTVKRQLRALQHSGSSVLSADKNQRLNTILNSMSTIYSTGKACNPSNPQECLLLEPGLDDIMENSKDYNERLWAWEGWRSEVGKQLRPLYEEYVALKNEMARANNYEDYGDYWRGDYEEEWENGYNYSRNQLIDDVEHTFTQIMPLYQHLHAYVRTKLMDTYPSYISPTGCLPAHLLGDMWGRFWTNLYPLTVPFGQKPNIDVTNAMVNQSWDARKIFKEAEKFFVSVGLPNMTQEFWENSMLTEPSDSRKVVCHPTAWDLGKGDFRIKMCTKVTMDDFLTAHHEMGHIQYDMAYAAQPFLLRNGANEGFHEAVGEIMSLSAATPNHLKNIGLLPPSFFEDSETEINFLLKQALTIVGTLPFTYMLEKWRWMVFKGEIPKDQWMKTWWEMKRNIVGVVEPVPHDETYCDPASLFHVANDYSFIRYYTRTIYQFQFQEALCQIAKHEGPLHKCDISNSSEAGQKLLEMLKLGKSKPWTYALEIVVGAKNMDVRPLLNYFEPLFTWLKEQNRNSFVGWNTDWSPYADQSIKVRISLKSALGEKAYEWNNNEMYLFRSSIAYAMRQYFSEVKNQTIPFVEDNVWVSDLKPRISFNFFVTSPGNVSDIIPRTEVEEAIRMYRSRINDVFRLDDNSLEFLGIQPTLGPPYEPPVT
The molecule B1 yielded a dissociation rate constant (koff) of 0.0139 s⁻¹.

As usually defined, the koff is the first-order rate constant of dissociation. A low value points to slow dissociation.
